From PMC9482650, “Quantitative fragmentomics allow affinity mapping of interactomes” (Nature Communications, 2022)

biological target: FRMPD4, Q14CM0; experiment: holdup assay; design: key: below the threshold = too weak to quantify, mostly under pKd 3.1 to 4; conditions: plain residues with an end cap or a label only (N-terminal biotin on a linker: ttds)
Sequence (Q14CM0 67-160): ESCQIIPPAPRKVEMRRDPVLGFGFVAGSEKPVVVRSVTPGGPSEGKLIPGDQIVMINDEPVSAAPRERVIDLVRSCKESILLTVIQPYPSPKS

Binder	pKd
SRRPRTETQV [HPV31-E6, P17386]	below the threshold
QFQYAKESYI [TAGAP, Q8N103]	below the threshold
LCALPKVTTV [AGMAT, Q9BSE5]	below the threshold

biological target: T1, SIPA1L2, Q9P2F8; experiment: holdup assay; design: key: below the threshold = too weak to quantify, mostly under pKd 3.1 to 4; conditions: plain residues with an end cap or a label only (N-terminal biotin on a linker: ttds)
T1 sequence (Q9P2F8 945-1036, limits assumed, looked up): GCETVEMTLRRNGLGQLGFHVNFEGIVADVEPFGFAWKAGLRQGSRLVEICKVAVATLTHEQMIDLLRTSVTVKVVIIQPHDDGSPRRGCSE

Binder	pKd
SRRPRTETQV [HPV31-E6, P17386]	below the threshold
QFQYAKESYI [TAGAP, Q8N103]	below the threshold
LCALPKVTTV [AGMAT, Q9BSE5]	below the threshold

biological target: T2, PDZD7_3, Q9H5P4; experiment: holdup assay; design: key: below the threshold = too weak to quantify, mostly under pKd 3.1 to 4; conditions: plain residues with an end cap or a label only (N-terminal biotin on a linker: ttds)
T2 sequence (Q9H5P4 857-944, limits assumed, looked up): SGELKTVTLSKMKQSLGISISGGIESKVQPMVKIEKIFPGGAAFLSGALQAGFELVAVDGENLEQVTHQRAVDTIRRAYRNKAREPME

Binder	pKd
SRRPRTETQV [HPV31-E6, P17386]	3.71
QFQYAKESYI [TAGAP, Q8N103]	4.87
LCALPKVTTV [AGMAT, Q9BSE5]	5.41

biological target: GORASP1, Q9BQQ3; experiment: holdup assay; design: key: below the threshold = too weak to quantify, mostly under pKd 3.1 to 4; conditions: plain residues with an end cap or a label only (N-terminal biotin on a linker: ttds)
Sequence (Q9BQQ3 1-208): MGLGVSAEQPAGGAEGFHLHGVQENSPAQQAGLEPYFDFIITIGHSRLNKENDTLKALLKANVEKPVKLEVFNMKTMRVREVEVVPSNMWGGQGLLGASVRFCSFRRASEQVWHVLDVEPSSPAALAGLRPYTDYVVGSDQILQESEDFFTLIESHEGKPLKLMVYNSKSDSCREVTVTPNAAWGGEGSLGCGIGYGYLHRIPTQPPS

Binder	pKd
SRRPRTETQV [HPV31-E6, P17386]	below the threshold
QFQYAKESYI [TAGAP, Q8N103]	3.9
LCALPKVTTV [AGMAT, Q9BSE5]	4.11

biological target: MAGI2_2, Q86UL8; experiment: holdup assay; design: key: below the threshold = too weak to quantify, mostly under pKd 3.1 to 4; conditions: plain residues with an end cap or a label only (N-terminal biotin on a linker: ttds)
Sequence (Q86UL8 410-522): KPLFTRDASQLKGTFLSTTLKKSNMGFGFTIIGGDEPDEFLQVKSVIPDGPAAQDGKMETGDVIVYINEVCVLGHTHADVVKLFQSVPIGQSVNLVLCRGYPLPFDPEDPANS

Binder	pKd
SRRPRTETQV [HPV31-E6, P17386]	6.38
QFQYAKESYI [TAGAP, Q8N103]	3.5
LCALPKVTTV [AGMAT, Q9BSE5]	4.18

biological target: MAGI2_6, Q86UL8; experiment: holdup assay; design: key: below the threshold = too weak to quantify, mostly under pKd 3.1 to 4; conditions: plain residues with an end cap or a label only (N-terminal biotin on a linker: ttds)
Sequence (Q86UL8 1141-1229): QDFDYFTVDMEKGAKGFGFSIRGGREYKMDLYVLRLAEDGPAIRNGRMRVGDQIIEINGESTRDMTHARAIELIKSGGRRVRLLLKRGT

Binder	pKd
SRRPRTETQV [HPV31-E6, P17386]	below the threshold
QFQYAKESYI [TAGAP, Q8N103]	3.99
LCALPKVTTV [AGMAT, Q9BSE5]	4.64

biological target: LNX1_2, Q8TBB1; experiment: holdup assay; design: key: below the threshold = too weak to quantify, mostly under pKd 3.1 to 4; conditions: plain residues with an end cap or a label only (N-terminal biotin on a linker: ttds)
Sequence (Q8TBB1 371-470): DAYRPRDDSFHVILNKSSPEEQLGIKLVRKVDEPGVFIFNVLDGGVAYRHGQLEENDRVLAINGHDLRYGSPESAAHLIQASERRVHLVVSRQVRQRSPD

Binder	pKd
SRRPRTETQV [HPV31-E6, P17386]	below the threshold
QFQYAKESYI [TAGAP, Q8N103]	below the threshold
LCALPKVTTV [AGMAT, Q9BSE5]	4.42

biological target: Inadl_3, Q8NI35; experiment: holdup assay; design: key: below the threshold = too weak to quantify, mostly under pKd 3.1 to 4; conditions: plain residues with an end cap or a label only (N-terminal biotin on a linker: ttds)
Sequence (Q8NI35 359-469): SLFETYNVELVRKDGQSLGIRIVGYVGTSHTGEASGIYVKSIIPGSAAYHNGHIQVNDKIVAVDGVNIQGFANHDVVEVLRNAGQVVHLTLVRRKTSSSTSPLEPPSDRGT

Binder	pKd
SRRPRTETQV [HPV31-E6, P17386]	below the threshold
QFQYAKESYI [TAGAP, Q8N103]	below the threshold
LCALPKVTTV [AGMAT, Q9BSE5]	3.54

biological target: T3, HTRA3, P83110; experiment: holdup assay; design: key: below the threshold = too weak to quantify, mostly under pKd 3.1 to 4; conditions: plain residues with an end cap or a label only (N-terminal biotin on a linker: ttds)
T3 sequence (P83110 354-453, limits assumed, looked up): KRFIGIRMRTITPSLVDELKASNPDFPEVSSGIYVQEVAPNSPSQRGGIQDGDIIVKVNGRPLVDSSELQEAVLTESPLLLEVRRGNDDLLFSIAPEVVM

Binder	pKd
SRRPRTETQV [HPV31-E6, P17386]	below the threshold
QFQYAKESYI [TAGAP, Q8N103]	3.76
LCALPKVTTV [AGMAT, Q9BSE5]	3.71

biological target: T4, FRMPD1, Q5SYB0; experiment: holdup assay; design: key: below the threshold = too weak to quantify, mostly under pKd 3.1 to 4; conditions: plain residues with an end cap or a label only (N-terminal biotin on a linker: ttds)
T4 sequence (Q5SYB0 52-145, limits assumed, looked up): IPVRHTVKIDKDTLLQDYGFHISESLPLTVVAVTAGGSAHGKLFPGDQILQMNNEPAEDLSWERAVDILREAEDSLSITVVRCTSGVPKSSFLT

Binder	pKd
SRRPRTETQV [HPV31-E6, P17386]	below the threshold
QFQYAKESYI [TAGAP, Q8N103]	below the threshold
LCALPKVTTV [AGMAT, Q9BSE5]	below the threshold

biological target: TJP1_3, Q07157; experiment: holdup assay; design: key: below the threshold = too weak to quantify, mostly under pKd 3.1 to 4; conditions: plain residues with an end cap or a label only (N-terminal biotin on a linker: ttds)
Sequence (Q07157 416-512): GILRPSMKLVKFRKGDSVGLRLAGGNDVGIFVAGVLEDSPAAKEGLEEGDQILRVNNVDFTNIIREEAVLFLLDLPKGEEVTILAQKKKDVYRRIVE

Binder	pKd
SRRPRTETQV [HPV31-E6, P17386]	below the threshold
QFQYAKESYI [TAGAP, Q8N103]	below the threshold
LCALPKVTTV [AGMAT, Q9BSE5]	below the threshold

biological target: GRIP2_7, Q9C0E4; experiment: holdup assay; design: key: below the threshold = too weak to quantify, mostly under pKd 3.1 to 4; conditions: plain residues with an end cap or a label only (N-terminal biotin on a linker: ttds)
Sequence (Q9C0E4 934-1023): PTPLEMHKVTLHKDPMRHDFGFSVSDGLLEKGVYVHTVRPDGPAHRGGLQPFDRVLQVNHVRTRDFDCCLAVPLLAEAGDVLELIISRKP

Binder	pKd
SRRPRTETQV [HPV31-E6, P17386]	below the threshold
QFQYAKESYI [TAGAP, Q8N103]	below the threshold
LCALPKVTTV [AGMAT, Q9BSE5]	below the threshold

biological target: IL16_3, Q14005; experiment: holdup assay; design: key: below the threshold = too weak to quantify, mostly under pKd 3.1 to 4; conditions: plain residues with an end cap or a label only (N-terminal biotin on a linker: ttds)
Sequence (Q14005 1107-1207): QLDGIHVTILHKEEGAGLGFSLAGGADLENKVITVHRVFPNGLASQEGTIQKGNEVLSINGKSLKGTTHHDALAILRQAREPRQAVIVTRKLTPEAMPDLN

Binder	pKd
SRRPRTETQV [HPV31-E6, P17386]	below the threshold
QFQYAKESYI [TAGAP, Q8N103]	below the threshold
LCALPKVTTV [AGMAT, Q9BSE5]	below the threshold

biological target: T5, GRIP1_5, Q9Y3R0; experiment: holdup assay; design: key: below the threshold = too weak to quantify, mostly under pKd 3.1 to 4; conditions: plain residues with an end cap or a label only (N-terminal biotin on a linker: ttds)
T5 sequence (Q9Y3R0 568-668, limits assumed, looked up): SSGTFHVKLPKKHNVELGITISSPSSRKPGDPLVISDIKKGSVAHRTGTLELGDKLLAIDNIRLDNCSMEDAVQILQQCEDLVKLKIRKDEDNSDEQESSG

Binder	pKd
SRRPRTETQV [HPV31-E6, P17386]	below the threshold
QFQYAKESYI [TAGAP, Q8N103]	below the threshold
LCALPKVTTV [AGMAT, Q9BSE5]	below the threshold

biological target: T6, TJP3_3, O95049; experiment: holdup assay; design: key: below the threshold = too weak to quantify, mostly under pKd 3.1 to 4; conditions: plain residues with an end cap or a label only (N-terminal biotin on a linker: ttds)
T6 sequence (O95049 375-456, limits assumed, looked up): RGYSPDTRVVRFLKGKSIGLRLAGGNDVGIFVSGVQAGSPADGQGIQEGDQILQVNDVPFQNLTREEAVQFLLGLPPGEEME

Binder	pKd
SRRPRTETQV [HPV31-E6, P17386]	below the threshold
QFQYAKESYI [TAGAP, Q8N103]	below the threshold
LCALPKVTTV [AGMAT, Q9BSE5]	below the threshold

biological target: HTRA1, Q92743; experiment: holdup assay; design: key: below the threshold = too weak to quantify, mostly under pKd 3.1 to 4; conditions: plain residues with an end cap or a label only (N-terminal biotin on a linker: ttds)
Sequence (Q92743 360-477): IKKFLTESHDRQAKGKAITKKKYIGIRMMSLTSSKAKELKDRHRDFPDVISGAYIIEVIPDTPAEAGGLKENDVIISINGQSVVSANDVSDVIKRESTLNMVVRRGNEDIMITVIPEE

Binder	pKd
SRRPRTETQV [HPV31-E6, P17386]	below the threshold
QFQYAKESYI [TAGAP, Q8N103]	4.03
LCALPKVTTV [AGMAT, Q9BSE5]	4.75

biological target: T7, PDZD2_2, O15018; experiment: holdup assay; design: key: below the threshold = too weak to quantify, mostly under pKd 3.1 to 4; conditions: plain residues with an end cap or a label only (N-terminal biotin on a linker: ttds)
T7 sequence (O15018 329-429, limits assumed, looked up): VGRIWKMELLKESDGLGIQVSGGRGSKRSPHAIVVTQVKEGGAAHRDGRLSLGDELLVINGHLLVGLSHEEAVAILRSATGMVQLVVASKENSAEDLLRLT

Binder	pKd
SRRPRTETQV [HPV31-E6, P17386]	3.7
QFQYAKESYI [TAGAP, Q8N103]	5.04
LCALPKVTTV [AGMAT, Q9BSE5]	4.44

biological target: Inadl_5, Q8NI35; experiment: holdup assay; design: key: below the threshold = too weak to quantify, mostly under pKd 3.1 to 4; conditions: plain residues with an end cap or a label only (N-terminal biotin on a linker: ttds)
Sequence (Q8NI35 673-780): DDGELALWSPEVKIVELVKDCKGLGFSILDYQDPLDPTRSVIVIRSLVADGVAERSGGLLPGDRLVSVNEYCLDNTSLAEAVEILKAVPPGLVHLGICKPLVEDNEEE

Binder	pKd
SRRPRTETQV [HPV31-E6, P17386]	below the threshold
QFQYAKESYI [TAGAP, Q8N103]	below the threshold
LCALPKVTTV [AGMAT, Q9BSE5]	below the threshold

biological target: T8, GRIP1_4, Q9Y3R0; experiment: holdup assay; design: key: below the threshold = too weak to quantify, mostly under pKd 3.1 to 4; conditions: plain residues with an end cap or a label only (N-terminal biotin on a linker: ttds)
T8 sequence (Q9Y3R0 467-571, limits assumed, looked up): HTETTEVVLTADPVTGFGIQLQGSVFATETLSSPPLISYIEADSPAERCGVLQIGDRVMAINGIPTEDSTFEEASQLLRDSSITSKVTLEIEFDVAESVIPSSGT

Binder	pKd
SRRPRTETQV [HPV31-E6, P17386]	below the threshold
QFQYAKESYI [TAGAP, Q8N103]	below the threshold
LCALPKVTTV [AGMAT, Q9BSE5]	below the threshold

biological target: FRMPD2_3, Q68DX3; experiment: holdup assay; design: key: below the threshold = too weak to quantify, mostly under pKd 3.1 to 4; conditions: plain residues with an end cap or a label only (N-terminal biotin on a linker: ttds)
Sequence (Q68DX3 1073-1166): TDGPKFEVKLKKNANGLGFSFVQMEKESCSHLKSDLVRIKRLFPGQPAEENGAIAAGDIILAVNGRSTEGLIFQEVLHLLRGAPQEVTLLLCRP

Binder	pKd
SRRPRTETQV [HPV31-E6, P17386]	below the threshold
QFQYAKESYI [TAGAP, Q8N103]	below the threshold
LCALPKVTTV [AGMAT, Q9BSE5]	below the threshold

biological target: T9, SNTG2, Q9NY99; experiment: holdup assay; design: key: below the threshold = too weak to quantify, mostly under pKd 3.1 to 4; conditions: plain residues with an end cap or a label only (N-terminal biotin on a linker: ttds)
T9 sequence (Q9NY99 68-166, limits assumed, looked up): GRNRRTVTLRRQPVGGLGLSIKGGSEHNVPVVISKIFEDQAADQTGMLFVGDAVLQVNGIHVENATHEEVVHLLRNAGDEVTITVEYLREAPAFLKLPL

Binder	pKd
SRRPRTETQV [HPV31-E6, P17386]	4.08
QFQYAKESYI [TAGAP, Q8N103]	4.42
LCALPKVTTV [AGMAT, Q9BSE5]	4.24

biological target: T10, APBA3_1, O96018; experiment: holdup assay; design: key: below the threshold = too weak to quantify, mostly under pKd 3.1 to 4; conditions: plain residues with an end cap or a label only (N-terminal biotin on a linker: ttds)
T10 sequence (O96018 389-490, limits assumed, looked up): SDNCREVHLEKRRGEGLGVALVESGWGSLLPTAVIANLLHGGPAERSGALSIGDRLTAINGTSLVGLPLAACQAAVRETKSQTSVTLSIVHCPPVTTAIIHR

Binder	pKd
SRRPRTETQV [HPV31-E6, P17386]	below the threshold
QFQYAKESYI [TAGAP, Q8N103]	below the threshold
LCALPKVTTV [AGMAT, Q9BSE5]	below the threshold

biological target: LIMK2, P53671; experiment: holdup assay; design: key: below the threshold = too weak to quantify, mostly under pKd 3.1 to 4; conditions: plain residues with an end cap or a label only (N-terminal biotin on a linker: ttds)
Sequence (P53671 143-248): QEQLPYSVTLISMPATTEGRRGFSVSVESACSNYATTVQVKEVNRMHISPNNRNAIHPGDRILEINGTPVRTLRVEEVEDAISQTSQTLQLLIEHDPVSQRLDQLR

Binder	pKd
SRRPRTETQV [HPV31-E6, P17386]	below the threshold
QFQYAKESYI [TAGAP, Q8N103]	below the threshold
LCALPKVTTV [AGMAT, Q9BSE5]	below the threshold

biological target: T11, DLG3_2, Q92796; experiment: holdup assay; design: key: below the threshold = too weak to quantify, mostly under pKd 3.1 to 4; conditions: plain residues with an end cap or a label only (N-terminal biotin on a linker: ttds)
T11 sequence (Q92796 221-321, limits assumed, looked up): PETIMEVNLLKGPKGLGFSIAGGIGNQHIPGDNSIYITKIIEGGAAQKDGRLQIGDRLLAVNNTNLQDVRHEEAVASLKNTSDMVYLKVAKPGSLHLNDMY

Binder	pKd
SRRPRTETQV [HPV31-E6, P17386]	5.41
QFQYAKESYI [TAGAP, Q8N103]	4.15
LCALPKVTTV [AGMAT, Q9BSE5]	5.31

biological target: HTRA2, O43464; experiment: holdup assay; design: key: below the threshold = too weak to quantify, mostly under pKd 3.1 to 4; conditions: plain residues with an end cap or a label only (N-terminal biotin on a linker: ttds)
Sequence (O43464 355-458): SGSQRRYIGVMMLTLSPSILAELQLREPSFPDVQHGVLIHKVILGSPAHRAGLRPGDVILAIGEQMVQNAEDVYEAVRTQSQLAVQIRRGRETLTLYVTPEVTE

Binder	pKd
SRRPRTETQV [HPV31-E6, P17386]	below the threshold
QFQYAKESYI [TAGAP, Q8N103]	below the threshold
LCALPKVTTV [AGMAT, Q9BSE5]	3.8

biological target: NHERF4_4, Q86UT5; experiment: holdup assay; design: key: below the threshold = too weak to quantify, mostly under pKd 3.1 to 4; conditions: plain residues with an end cap or a label only (N-terminal biotin on a linker: ttds)
Sequence (Q86UT5 464-550): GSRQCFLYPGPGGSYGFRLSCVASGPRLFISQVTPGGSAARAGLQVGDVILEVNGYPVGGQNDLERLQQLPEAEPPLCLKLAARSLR

Binder	pKd
SRRPRTETQV [HPV31-E6, P17386]	below the threshold
QFQYAKESYI [TAGAP, Q8N103]	below the threshold
LCALPKVTTV [AGMAT, Q9BSE5]	below the threshold
